# From patent US7115576B2, “Water-soluble antibiotic comprising an amino sugar, in the form of a polysaccharide conjugate” (Fresenius Kabi Deutschland GmbH, priority 2001, dated 2006)
# Key:
# [1] = Water solubility; type: physicochemical
# [2] = tested on: erythrocytes; assay: Haemolysis comparison test (extinction of supernatant at 576 nm); type: cell-based, human; conditions: 37°C, 20 min
# Experimental: Of this stock solution, three dilutions were produced in accordance with Table 2 and their haemolytic action also investigated.
# Production of the erythrocyte suspension: freshly taken human blood was diluted with approximately 5 times the volume of sterile 0.9% NaCl solution (batch designation: 9055A64 produced by the company Braun Melsungen) and centrifuged for 5 minutes at a relative centrifugal acceleration of 2000. The supernatant solution was then drawn off and the sedimented erythrocytes treated twice more in the same way.
# The erythrocytes thus washed were counted in a Neubauer counting chamber and—where necessary—diluted again with sterile 0.9% NaCl solution to a final concentration of approx. 5·10^8 erythrocytes per ml. This suspension is according to DIN standard usable at room temperature for up to 6 hours.
# Haemolysis comparison test: 5 ml of the solution to be tested was mixed with 1 ml of the above erythrocyte suspension, transferred to a cleaned centrifuge tube and incubated in a water bath at 37±1° C. for 20 minutes. Centrifuging was then performed for 5 minutes at a relative centrifugal acceleration of 2000.
# The extinction of the supernatant liquid was measured. 5 ml of the 0.9% NaCl solution and the 5% glucose solution, which were mixed with 1 ml of the erythrocyte suspension, also incubated at 37±1° C. for 20 minutes and then centrifuged as above, served as negative controls.
# For the test for haemolysis, the extinctions of the respective supernatants were measured in a photometer against the negative controls at a wavelength of 576 nm using a cuvette 10 mm in thickness. Owing to the differing stainings of the solutions, the extinction was also measured for the purpose of comparing the solutions without erythrocyte suspension.
Compound,water solubility [1],Extinction 576 nm ([2]; amphotericin B 0.1 mg/ml in the test batch (0.12 mg/ml in the solution)),Extinction 576 nm ([2]; amphotericin B 0.2 mg/ml in the test batch (0.24 mg/ml in the solution)),Extinction 576 nm ([2]; amphotericin B 0.4 mg/ml in the test batch (0.48 mg/ml in the solution)),Extinction 576 nm ([2]; amphotericin B 0.83 mg/ml in the test batch (1.00 mg/ml stock solution))
Amphotericin B-HES Conjugate [Ampho HES],> 0.1 g/5 ml H2O,0.027,0.061,0.274*),2.452*)**)
"C[C@@H]1[C@H](O)[C@@H](C)/C=C/C=C/C=C/C=C/C=C/C=C/C=C/[C@H](O[C@@H]2O[C@H](C)[C@@H](O)[C@H](N)[C@@H]2O)C[C@@H]2O[C@](O)(C[C@@H](O)C[C@@H](O)[C@H](O)CC[C@@H](O)C[C@@H](O)CC(=O)O[C@H]1C)C[C@H](O)[C@H]2C(=O)O [Amphotericin B, reference compound]",virtually insoluble in water,–,–,–,–
